Assay results from the nanobody polyreactivity screen of Harvey et al. (2022).

Experiment: yeast display, Sf9 membrane polyspecificity reagent, FACS + sequencing; frameworks hold sequencing errors
How it was run: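 Nanobodies came from a synthetic yeast display library in Saccharomyces cerevisiae BJ5465, induced with galactose for 36–48 hours and stained for 1 hour at 4 °C with 10% biotinylated, detergent-solubilized Sf9 membrane reagent. Cells were enriched on streptavidin microbeads and then FACS-sorted, with low and high (top ~1%) gates set on anti-HA fluorescence for expression and streptavidin fluorescence for reagent binding. Each polyreactivity label reflects the gate a clone came from. Genes were amplified by colony PCR, sequenced by MiSeq 2 × 250 and filtered by CDR length.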

Sequence	polyreactivity (PSR sort gate)
QVQLVESGGGLVQAGGSLGLSCAASGFTFTYYAMGWYRQAPGKERELVASISWRGGSTYADSVKGRFTISRDNAQNTVYLQMNSLTPEDTAVYYCAADGYSYGNYIYDYWGQGTQVTVSS	low polyreactivity
QVQLVESGGGLVQAGGSLGLSCAASGFTFYYYAMGWYRQAPGKERELVAIRFRGGNTYYADSVKGRFTISRDNAENTVYLQMNSLKPEDTAVYYCNADDLGSTYVDYDYWGQGTQVTVSS	low polyreactivity
QVQLVESGGGLVQAGGSLGLSCAASGSFFYQNAMGWYRQAPGKDREWVAAISRSGGSTYYADSVMGRFTISRDNAKISVDEQMNSLQPEDTPVYYCAARNSRQGSYSRDFWGQGTQVTVSS	high polyreactivity
QVQLVESGGGLVQAGGSLGLSCAASGSIFEPYVMGWYRPAPGKERELVAAISESGDTTYYADSVKGRFTISRDNAKNTVYLQRNSLKPEDTAVYYCNAEDPSIDGWWRVGEYDYWGQGTQVTVSS	low polyreactivity
QVQLVESGGGLVQAGGSLGLSCAASGSTFGPNAMGWYRQAPGKERELVARITDSGGSTYYADSVKGRFTISRDNAKNTVDLQMNSLKQDDTAVYYCAAEVYLLSRYYTPAYDYWGQGTLVTVSS	low polyreactivity
QVQLVESGGGLVQAGGSLHLSCAASGRTFVWYAMGWYRQAPGKERELVAAISWSGTSTYYADSVKGRFTNSRDYAKYNVYLQMNSLKPEDTAVYYCYEKYYYWGQGTQVTVSS	high polyreactivity
QVQLVESGGGLVQAGGSLILSCAASYAMGWYRQAPGKERELVATIKSGGVSTYYADSVKGRFTISRDNAKNTVYLQMNCLKPEDTAVYDCAANASHSTSADYDYWGQGTQVTVSS	low polyreactivity
QVQLVESGGGLVQAGGSLLLRCAASGRTFKNYAKGWSRQAPGKERELVAAISSGGGRTKYADSEKGRFTISRDNAKNSVYLQLNSLKPDDTAVYYCAAAFYYRDDYWGQGSQVTVSS	high polyreactivity
QVQLVESGGGLVQAGGSLLLSCAAAGSIFRTYAMGWYRQAPGKERELVAAISRSGSSTYYADSVKGRFTISRDNAKNTVYFQMNSLKPEDTAVYYCAALVRKYGVDYWGQGTQVTVSS	high polyreactivity
QVQLVESGGGLVQAGGSLLLSCAASGFTFKCYAMGWYRQAPGKERELVAAISRSGSSTYYADSVKVRFTISRDTAKNTVYLQMNSLKPEDTAVYYCAAYYRTWGGYWGQGTQVTVSS	high polyreactivity
QVQLVESGGGLVQAGGSLLLSCAASGFTFRYYAMGWNRQAPGKERELVAAINSGGSTNYADSVKGLFTISRDNAKNTVYLQMNSLKPEDTAVYYCAKRGRRGIEYLGSAEMDYWGEGTQVTVSS	low polyreactivity
QVQLVESGGGLVQAGGSLLLSCAASGIIFSSYVMGWYRQAHGKERELVAAISKSGARPSYADSVKGRFTISRDNAKNTVYLQMNSLKPEDTAVYYCAAAWHTAYWVGSDSQGGGYWGQGTQVTVSS	low polyreactivity
QVQLVESGGGLVQAGGSLLLSCAASGLTFERYVMVWYRQAPGKERELVSSISRSGSTYYADSVKGRFTISRDNAKNTVYLQMNSLKPEDTAVYYCNADRFWFHWVYSRYHYDYWGQGTQVTVSS	high polyreactivity
QVQLVESGGGLVQAGGSLLLSCAASGLTFTDNAMGWSRQAPGKERELVAAISQSGGRTFYADSVKGRFTISRDNAKNTVYLQINSLKPEDPAVYYCNSRRGSVAKYGYLGQGTQVTVSS	high polyreactivity
QVQLVESGGGLVQAGGSLLLSCAASGRIFIDYAMGLYRQAPGKERELVATISESGGTTYYADSVKGRFTISRDNGKNTVYLQMNSLKPEDTAVYYCAAKRLCRPYDYWGQGTQVTVSS	low polyreactivity
QVQLVESGGGLVQAGGSLLLSCAASGRIFRSYAMGWYRQAPGKERELVAAISSGGSTKYADSVKGRFTISRDNAKNTVYLQMNSLKPVDTAVYYCAASRTRLGTSGTSYGAAYDYWGQGTQVTVSS	high polyreactivity
QVQLVESGGGLVQAGGSLLLSCAASGRIINYYAMGWYRQAPGKEREFVAAITRSGGRTYYADSVKGRFTISRDNAKNTVYLQMNSLKPEDTAVYYCAAPYGTYAYDYWGQGTQVTVSS	high polyreactivity
QVQLVESGGGLVQAGGSLLLSCAASGRTFTGYAMGGYRQAPVKERELVAAISASGGSTYYADSVKGRFTISRDNAKNTVYLQMNSLIPEDTAVYYCAAETWYSVLWEEGYDYWGQGTQVTVSS	low polyreactivity
QVQLVESGGGLVQAGGSLLLSCAASGSIFYNYAMGWYRQAPGKERELVAAISQSGGSTRYADSVKGRFTISRDNAKNTVYLQMNSLKPEDTAVYYCAASRRKGQGSAGFGYWGQGTQVTVSS	high polyreactivity
QVQLVESGGGLVQAGGSLLLSCAASGSTFAWYAMGWNRQAPGKERELVAAISRTGRTYYADSVKGRFTISRDNAKNTVYLEMNSLKPEDTAVYYCAARIERFYRDQRYDYWGQGTQVTVSS	high polyreactivity
QVQLVESGGGLVQAGGSLLLSCAASGSTFGSYDMGWYRQAPGKERELVATISTSGSGTYYADSVKGRFTISRDNSKNTVYLQMNSLKPEDTAFYDCAKDPADGRRFRYGYWGQGTQVTVSS	low polyreactivity
QVQLVESGGGLVQAGGSLLLSCAASGSTFGYNTMGWYRQAPGKERELVAAINYSGGRTYYADSVKGRFTISRDYAMNTVYLQMNSQKPEDTAVYYCNALSYPSRVYDAYDYWGQGTQVTVSS	high polyreactivity

Sequence	polyreactivity (PSR sort gate)
QVQLVESGGGLVQAGGSLLLSCAPSGITFVWYAMVWYRQAPGKERELVAAISRGGSTYYADSVKGRFTISRDNAKNTVYLQMNSLKPVDTAVYYCAARAPYIQQSVHISPRYYYSGQGTQVTVSS	high polyreactivity
QVQLVESGGGLVQAGGSLLLSSAASGFTFGNNDMGWYRKSHGKERELVDAITKRGSSTYYADSVKGRFTISRDNAKNTVYLQMNSLKPEDTAVYHCAASWLGASGIRYDYWGQGTLVTVSS	high polyreactivity
QVQLVESGGGLVQAGGSLLLSSAASGSTLVYYTMGRYIPAPGKERELVAGITGSGGSTYYADSVKGRFTISRDNAKNTVYLQMNILIPEDTAVYYCAKRGFRSYHYIRGVYYWGQGTQVTVSS	low polyreactivity
QVQLVESGGGLVQAGGSLPLSCAASGFIFPGYAMGWYRQAPGKERELVAVISSRGGSTKYADSVKGRFTISRDNANYSVYLQMNSLNPEDTAVYYCAAARAPRKYDSWGQGTQVTVSS	high polyreactivity
QVQLVESGGGLVQAGGSLPLSCAASGFIFTSNAMGWYRQAPGKERELVASISGNGGRTNYADSVKGRFTISRDNAKNTVYLQMNSLKPDDTAVYYCAARVRRFLNRVSRYPHDYWGQGTQVTVSS	high polyreactivity
QVQLVESGGGLVQAGGSLPLSCAASGFIYGGNAMGWYRQAPGKERELVAAISKSGGRTYYADSVKGRFTISRDNAKNTVYLQMNSLKPEDTAVYYCAAVPGRTAEDYGEDYWGQGTEVTVSS	high polyreactivity
QVQLVESGGGLVQAGGSLPLSCAASGITFHRYAMGWDRQAPGKERELVAAMSRGASTNYADSVKGRFTISRDNAKNTVYLQMNSLKPEDTAVYYCAARTIGWYSGSRFDYWGQCTQVTVSS	high polyreactivity
QVQLVESGGGLVQAGGSLPLSCAASGITFRYYAMGWYRQAPGKERELVAAITRGGRTNYADSVKGRFTISRDNAKNTVYLQMNSLKPEDTAVYYCATGRDSNFGNSYYYWGQGTQVTVSS	high polyreactivity
QVQLVESGGGLVQAGGSLPLSCAASGRIFNSNAMGWYRQAPGKERELVAAIPISGSTNYADSVKGRFTISRDNAKNTVYFQMNSLKPEDTAVYYCAAQRTSHGRGVNGYVKYGYWGQGTIVTVSS	high polyreactivity
QVQLVESGGGLVQAGGSLPLSCAASGRIYGGNVMGWYRQAPGKERELVAAISKRGDSTYYADSVKGRFTISRDNAKNTVYLQMNSLKPEDTAVYYCAAVRRGDRGTDMDYWGQGTQVTVSS	high polyreactivity
QVQLVESGGGLVQAGGSLPLSCAASGRTFGENAMGWYRQAPGKERELVAAITSGARTYYADSVKGRFTISRDNAKNTVYLQMNSLKPEDTAVYYCAKAYRRFSGGAGKQGGYYWGQGTQVTVSS	high polyreactivity
QVQLVESGGGLVQAGGSLPLSCAASGRTFPVYAMGWYRQAPGKERELVARINSGGRTTDADSVKGRFTISRDNAKNTVYLPKNSLKPEDSAVYYCNADSTYFRFDYWGQGTQVTVSS	high polyreactivity
QVQLVESGGGLVQAGGSLPLSCAASGRTFWDNAMGWYRQAPGKERELVATITSGDSTNYADSVKWRFTISRDNAKNTVYLQMNSLKPEDTAVYDCARVIVFDAYEFDYWGQGTQVTVSS	low polyreactivity
QVQLVESGGGLVQAGGSLPLSCAASGRTINTNAMGWSRQAPGKERELVAAISGGGSTYADSVKGRFTISRDNAKNTVYLQMNSLKPEDTAVYYCAAQNVWIYGFWRDYWGQGTQVTVSS	low polyreactivity
QVQLVESGGGLVQAGGSLPLSCAASGSTFAVYAMGWYRQAPGKERELVAAISFSGSTYADSVKGRFTISRDNAKNTVYLQMNSLKPEDTAVYYCAKEYRVFGWWYTKGDYWGQGTQVTVSS	low polyreactivity
QVQLVESGGGLVQAGGSLPLSCAASGSTFLAYAMGWYRQAPGKERELVAAITWNSGSSTFYADSVKGRFTISRDNAKNTVYLQMNSLKPEDTAVYYCNADVPSPAYYGDGTPYREDNYWGQGTQVTVSS	low polyreactivity
QVQLVESGGGLVQAGGSLPLSCAASGSTFTYYAMGWYRKAPGKEGELVARITWTGGRTYYADSVKGRFTISRGNAKNTVYLQMNSVKTEDTAVYYCNALPYFFETQYDYWGQGTQVTVSS	low polyreactivity
QVQLVESGGGLVQAGGSLRFSCAASGFIFYRNTMGWYRQAPGKEREFVAAIRWRGGSTYYADSVKGRFTISRDNAKNTVYLQMNSLKPEDTAVYYCAADTRPGYSGFVYWGQGTQVTVSS	high polyreactivity
QVQLVESGGGLVQAGGSLRFSCAASGFIFYYYDMGWYRQAPGKERELVATISRGGSTYYADSVKGRFTISRDNAKNTVYLQMNSLKPEDTAVYYCAAYRSFGYRNWNRFDYWGQGTQVTVSS	high polyreactivity
QVQLVESGGGLVQAGGSLRFSCAASGFTFSHYAMGWYRQAPGQERELVAAITWSGGSTYYADSVKGRFTISRDNEKNTVYLQLNSVKPEDTAVYYCAAESYRDGVDYWGQGTQVTVSS	high polyreactivity
QVQLVESGGGLVQAGGSLRFSCAASGFTFYEYAMGWYRQAPGKERELVAAINWNGGRTYYADSVKGRFTISRDNAKNTVYLQMNSLKPEDTAVYYCAARVAPKTKISRRYYWGQGTQVNVSS	high polyreactivity
